Data published in patent US20260193638A1 (ROCHE DIAGNOSTICS OPERATIONS, published 2026).

B1: Thermus thermophilus SlyD-FKBP clone C10B9 (designed binder)
chain: MRSKVGQDKVVTIRYTLQVEGEVLDQGELSYLHGHRNLIPGLEEALEGREEGEAFQAHVPAEKAYGAGSYYVLITDNLVYFGGSSGKDLDFQVEVVKVREATPEELLHGHGGAAAGLNDIFEAQKIEWHEGSRKHHHHHHHH
notes: also called C10B9 mutant
B2: Thermus thermophilus SlyD-FKBP TT10F7 (designed binder)
chain: MRSKVGQDKVVTIRYTLQVEGEVLDQGELSYLHGHRNLIPGLEEALEGREEGEAFQAHVPAEKAYGAGSWKPHFNLHLLYLIGSSGKDLDFQVEVVKVREATPEELLHGHAHGGAAAGLNDIFEAQKIEWHEGSRKHHHHHHHH
notes: captured on the sensor directly from E. coli lysate; also called TT10F7 mutant; TT10F7 T.t.SlyD-FKBP12

What was measured:
[1] = target: T1, human recombinant TNFα (fully intact trimeric TNFα) (human, UniProt P01375 77-233); assay: SPR, C10B9 captured via anti-SlyD antibody, TNFα in solution
T1 construct: also called hrTNFα
T1 sequence (P01375 77-233 limits assumed): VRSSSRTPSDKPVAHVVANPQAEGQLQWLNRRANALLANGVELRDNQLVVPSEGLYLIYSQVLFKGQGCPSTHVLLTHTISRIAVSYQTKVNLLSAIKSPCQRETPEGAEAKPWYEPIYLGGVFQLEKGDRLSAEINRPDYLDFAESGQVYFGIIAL
Protocol: (§1) The samples were diluted in the instrument's buffer. In another embodiment the buffer was HBS-E buffer (10 mM HEPES pH 7.4, 150 mM NaCl, 3 mM EDTA) and the samples were diluted in the detergent-free buffer. The system operated at 25° C. 10000 RU GAR-Fcγ (relative units of Fcγ-fragment binding, polyclonal goat anti-Rabbit IgG/Jackson Laboratories) were immobilized according to the manufacturer's instructions using EDC/NHS chemistry on all 4 flow cells. The sensor is finally deactivated using 1M ethanolamine. […] A monoclonal rabbit anti-Thermus thermophilus SlyD core protein (0612pS3A8) binding antibody, was captured in all flow cells by a 6 min injection at 5 μl/min. […] Flow cell 1 served as a reference. […] The Thermus thermophilus SlyD-FKBP clones were specifically captured on the sensor by a 2 min injection at 30 μl/min directly from a 1:25 diluted 10000 g-centrifuged E. coli lysate supernatant.
(§2) The flow rate was set to 100 μl/min. […] The dissociation was monitored for 5 minutes.

[2] = target: T1, human recombinant TNFα (fully intact …); assay: SPR, TT10F7 captured, TNFα (52 kDa trimer) in solution, + TWEEN 20
Protocol: as §1, §2

[3] = target: T1, human recombinant TNFα (fully intact …); assay: SPR, TT10F7 captured, TNFα (52 kDa trimer) in solution, - TWEEN 20
Protocol: as §1, §2

[4] = target: Streptavidin (11897000, Roche) (UniProt P22629 37-163, limits assumed); assay: SPR, TT10F7 captured via anti-SlyD antibody, streptavidin in solution
Streptavidin (11897000, Roche), sequence (P22629 37-163 limits assumed): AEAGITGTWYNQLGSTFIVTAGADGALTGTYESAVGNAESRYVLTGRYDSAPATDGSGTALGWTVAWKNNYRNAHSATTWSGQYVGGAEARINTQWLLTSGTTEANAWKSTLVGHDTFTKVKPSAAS
Protocol: as §1, §2

[5] = target: T1, human recombinant TNFα (fully intact …); assay: SPR BIACORE 3000, TT10F7 captured via anti-SlyD antibody, trimeric TNFα as analyte
Protocol: as §1, with “A CM5 series sensor was mounted into the system and was normalized in HBS-ET buffer (10 mM HEPES pH 7.4, 150 mM NaCl, 3 mM EDTA, 0.005% w/v Tween 20) according to the manufacturer's instructions. The samples” for “The samples”
as §2

Binder	binding result [1]	Kd [2] [nM]	koff [2] [s⁻¹]	kon [2] [M⁻¹ s⁻¹]	Kd [3] [nM]	koff [3] [s⁻¹]	kon [3] [M⁻¹ s⁻¹]	binding result [4]	stoichiometry [5]
B1	no binding (tested: 1 µM)	–	–	–	–	–	–	–	–
B2	–	258	0.00268	10400	262	0.00103	3960	no binding (tested: 1 µM)	3 to 1
